Test results from the supplement of paper PMC10126150.
± gives the standard deviation of the averaged measurements.

Test system: ATP
Assay: switch fluorescence ratio, 500 uM ATP over buffer (Cy3 cluster intensity, sum of 5 cycles each) (fold (ratio)); higher = stronger signal-on switching upon ATP binding; sequences stand for … in TCGTCGGCAGCGTCAGATGTGTATAAGAGACAGTTTTTTTTTTTTTTTTTTTTTTTTT…TC
Conditions: aptamer strand: ATP DNA aptamer (quencher-CACCTGGGGGAGTATTGCGGAGGAAGG + anchor), 100 nM annealed; ATP concentration: 500 uM
Summary of the method: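 Exposure to 500 uM ATP lasted 15 min at 22 °C before imaging, and a selection-buffer image was taken beforehand, for Cy3-labelled switching-strand clusters on a modified Illumina MiSeq flow-cell annealed to 100 nM quencher-labelled ATP aptamer. Five buffer/ATP cycles were run with NaOH stripping and re-annealing between them. The fluorescence ratio per cluster is summed target-cycle over summed buffer-cycle Cy3 intensity, averaged per switch-domain sequence. Clusters outside 100-1000 RFU were excluded.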

| Sequence | switch fluorescence ratio |
| --- | --- |
| AGTAAGGGCG | 0.992 ± 0.039 |
| AGTAAGGGGT | 0.982 ± 0.021 |
| AGTAAGGTGT | 1.13 ± 0.095 |
| AGTAATAGGA | 1.03 ± 0.076 |
| AGTACAATGC | 1.47 ± 0.18 |
| AGTACCAATG | 1.03 ± 0.039 |
| AGTACGATTG | 1 ± 0.023 |
| AGTACGGATA | 1.03 ± 0.074 |
| AGTACGGTGC | 1.02 ± 0.017 |
| AGTACGGTGG | 0.985 ± 0.064 |
| AGTACGTTAT | 1.14 ± 0.026 |
| AGTACGTTGG | 0.966 ± 0.034 |
| AGTACTAACT | 1.05 ± 0.048 |
| AGTACTGACC | 1.23 ± 0.037 |
| AGTAGAATGG | 1.001 ± 0.0004 |
| AGTAGACGAC | 1.03 ± 0.042 |
| AGTAGAGAAT | 1.04 ± 0.017 |
| AGTAGAGGTT | 1.008 ± 0.0064 |
| AGTAGCTCTC | 1.02 ± 0.013 |
| AGTAGGGGTA | 0.974 ± 0.039 |
| AGTAGGGTTA | 0.989 ± 0.029 |
| AGTAGTAAAC | 1.02 ± 0.016 |
| AGTAGTTGGC | 1.01 ± 0.12 |
| AGTATCCAAA | 0.999 ± 0.027 |
| AGTATCTTCG | 0.9923 ± 0.0027 |

| Sequence | switch fluorescence ratio |
| --- | --- |
| AGTATGATTT | 0.98 ± 0.027 |
| AGTATGTCGA | 1.01 ± 0.015 |
| AGTATGTCGT | 1.03 ± 0.024 |
| AGTATGTGGG | 0.996 ± 0.048 |
| AGTATTCGCT | 0.975 ± 0.017 |
| AGTATTGCTC | 1.01 ± 0.024 |
| AGTATTTTG | 0.96 ± 0.013 |
| AGTCAAAGGA | 1.012 ± 0.0051 |
| AGTCAACTTG | 1.01 ± 0.053 |
| AGTCAGAAAT | 1 ± 0.022 |
| AGTCAGGCGA | 1.01 ± 0.078 |
| AGTCATAAAA | 1.01 ± 0.045 |
| AGTCCGTCGT | 1.026 ± 0.0068 |
| AGTCCTTTGT | 1.02 ± 0.025 |
| AGTCGCCCTG | 0.985 ± 0.05 |
| AGTCGCGCGC | 0.989 ± 0.011 |
| AGTCGGACGG | 1.01 ± 0.034 |
| AGTCGGATTC | 1.09 ± 0.076 |
| AGTCGGGAGA | 1.01 ± 0.015 |
| AGTCGTGTCT | 0.967 ± 0.012 |
| AGTCGTTGAG | 1.02 ± 0.033 |
| AGTCGTTTTT | 0.98 ± 0.026 |
| AGTCTAAGTG | 0.956 ± 0.021 |
| AGTCTGAGAC | 1.013 ± 0.0089 |
| AGTCTGGACT | 0.988 ± 0.025 |

| Sequence | switch fluorescence ratio |
| --- | --- |
| AGTCTGGGGC | 0.942 ± 0.023 |
| AGTCTGGTGC | 1.04 ± 0.032 |
| AGTGACAACA | 1.007 ± 0.0021 |
| AGTGAGGATC | 0.993 ± 0.032 |
| AGTGAGTAAC | 0.9811 ± 0.0061 |
| AGTGAGTGCT | 0.9751 ± 0.0059 |
| AGTGCAAGAT | 1.08 ± 0.028 |
| AGTGCATTGG | 1 ± 0.024 |
| AGTGCGTGGG | 1.002 ± 0.0061 |
| AGTGGACATC | 0.99098 ± 0.00034 |
| AGTGGACGAC | 0.9912 ± 0.0079 |
| AGTGGAGACG | 1.03 ± 0.012 |
| AGTGGAGCTG | 1.02 ± 0.038 |
| AGTGGATTCT | 1.004 ± 0.0022 |
| AGTGGATTGG | 1.01 ± 0.045 |
| AGTGGCCCCG | 1 ± 0.011 |
| AGTGGCCGCG | 1.02 ± 0.016 |
| AGTGGGGAGA | 1.02 ± 0.035 |
| AGTGGGGATG | 1.01 ± 0.013 |
| AGTGGGGGAG | 1.002 ± 0.0087 |
| AGTGGGGGTG | 1.03 ± 0.043 |
| AGTGGGGTCA | 0.989 ± 0.021 |
| AGTGGGTGTT | 1.01 ± 0.045 |
| AGTGGGTTTC | 0.9697 ± 0.0026 |
| AGTGGTAAAG | 1.012 ± 0.0029 |

| Sequence | switch fluorescence ratio |
| --- | --- |
| AGTGGTGGCT | 1.04 ± 0.018 |
| AGTGGTGTGG | 0.993 ± 0.044 |
| AGTGGTTCGG | 0.993 ± 0.015 |
| AGTGGTTTGT | 0.949 ± 0.017 |
| AGTGTAATTT | 0.973 ± 0.02 |
| AGTGTACCGG | 0.997 ± 0.01 |
| AGTGTATATG | 1.1 ± 0.099 |
| AGTGTCTATT | 0.981 ± 0.0055 |
| AGTGTGAAGG | 1.003 ± 0.0099 |
| AGTGTGAGTT | 1.025 ± 0.01 |
| AGTGTGGATT | 1.03 ± 0.015 |
| AGTGTGGCCA | 1.02 ± 0.016 |
| AGTGTGGTCT | 1.02 ± 0.045 |
| AGTGTGTTCT | 1.02 ± 0.021 |
| AGTGTGTTGC | 1.023 ± 0.0095 |
| AGTGTTACGT | 0.989 ± 0.042 |
| AGTGTTATTG | 0.976 ± 0.028 |
| AGTGTTGCCG | 0.965 ± 0.069 |
| AGTGTTGGGG | 0.998 ± 0.017 |
| AGTGTTGTGG | 0.9904 ± 0.0021 |
| AGTGTTTAAG | 1.036 ± 0.009 |
| AGTGTTTCTG | 0.973 ± 0.049 |
| AGTTAACGGT | 1.18 ± 0.19 |
| AGTTAACTTT | 1.02 ± 0.028 |
| AGTTAAGGGA | 0.991 ± 0.062 |
